Assay: soluble on expression in E. coli; label from the status in PepcDB or PDB records
With “MNKAAQKVLKLLGHTEIARVNSSCGAEQEYFLVDSNFAHQRPDLLLAGRTLFGKSPAKGQEFDDHYFGAIPERVQIFMQDVEAQLYKLGIPAKTRHNEVAPGQFEIAPVFEAANVASDHQQLIMTTLKTTAKKHGFMCLLHEKPFAGINGSGKHVNWSVGNATQGNLLDPGDSPHDNAQFLVFCGAVIRGVHKFGPLMRAVIANASNDHRLGANEAPPAIMSVYLGSQLEEVFEQIKNGTVSESKKKGVMDLGVAVLPELTKDAGDRNRTSPFAFTGNRFEFRAVGSSQSVSGPLVALNTILADSLGWIGDRLESELAKGLEISEAILTVLKEIMNDHGSVIFGGNGYSEEWHREAVQERGLRNLPTTADALPVLKEDEVVALFDQLKVLTPIELESRFEVYAEQYIKSIEV” the “soluble on expression in E. coli” value was “not soluble”. For “MNKEEQYLLFALSAPMEILNQSCKPAHDSPKMYTGIKEFDLSSSWGINNRDDLIQTIYQMTDDGHANDLAGLYLTWQRSSPEEWKALIAGGSERGLIYTQFVAQTAMCCGEGGIKAWDYVRMGFLSRAGVLNNWLTEEESLWLQSRVYARAHHYYHSWMHYFSAYSLGRLYWQSSQCEDNASLREALTLYKYDSAGSRMFEELAAGSDRFYATLPWQPLTVQPECPVTLKDVSDL”, the “soluble on expression in E. coli” value was “not soluble”. In the case of “MNKETLQLFRTLTELQGASGFEHDVRRFMKQELSKYADEIVQDGLGSVFGLKKGDETGPRVLVAGHMDEVGFMVTQITKNGMLRFQTLGGWWSQVLLAQRVQVMTKNGPVIGVVGSIPPHLLSDAQRAKPMDIKNMLIDIGADSYEDAIEIGVKPGQQIVPICPFTPMANEKKIMAKAWDNRYGCGLAIELLKELKDETLPNTLYSGATVQEEVGLRGAQTAANMIQPDIFYALDASPANDASGDKTQFGQLGKGALLRIYDRTMVTHRGIREFILDTAETNNIPYQYFISQGGTDAGRVHTSNSGIPSAVIGVCARYVHTHASILHVDDYAAAKELITKLVRTTDKTTLETIKNNA”, the “soluble on expression in E. coli” value is reported as “not soluble”. With “MNKIIISIGREFGSGGRRIGELLAKELEVPCYDRHLIEEAACRSGFETKELEEADEMKANRFLFKVPAKSNQYTGYGKPMNDTLFAIQSELIRKYADAGSCVIVGRCADKVLEKQEGLISVFIYAPLEARVEEIRRRYETDGEEALYLVRQADKIRRNYYNYYAKKKWGDRSSYDLMIDSSHFTDREVAAMIRAVSEERKAEWEENKFSTPQG” the “soluble on expression in E. coli” value was “not soluble”. For “MNKKEIFKLAKGFRGRAKNCIRIARERVEKALQYSYRDRRNKKREMRGLWIERINAGSRQHGVNYGNFIHGLMKENIQLNRKVLSELSMHEPYSFKALVDVSRKSFPGNKNVVQASRKVDISSINA”, the “soluble on expression in E. coli” value was “soluble”. In the case of “MNKLDTSQLKIASMGGGHGLFQTLRAVRQLNPASIDAIVTVADDGGSSGRIRRELGQIPPGDLRMALAALAPFDDEGLQWETLLQHRFGGHGALAGHAVGNLIIAGLCDTLGSEIAALDAVAKVIKAEGRVLPACAEPLEIAAEVSGLDDDPRIMREVIGQVAVASTPGTVRRVRLIPERPEATEESVEAIENADLVTLGPGSWFSSVIPHVLVPGIPTALATTKALRVVVLNLSPEPGETAGFTAERHIHILSQHAQTLRADVILVDEGLIPHKGERVHLERAAAVLGAQISYHDLSETDPSGRRIHRHDPAKLAEALRLQLLEHHHHHH”, the “soluble on expression in E. coli” value is reported as “soluble”. In the case of “MNKLYIGNLSENAAPSDLESIFKDAKIPVSGPFLVKTGYAFVDCPDESWALKAIEALSGKIELHGKPIEVEHSVPKRQRIRKLQIRNIPPHLQWEVLDSLLVQYGVVESCEQVNTDSETAVVNVTYSSKDQARQALDKLNGFQLENFTLKVAYIPDEMAAQQNPLQQPRGRRGLGQRGSSRQGSPGSVSKQKPCDLPLRLLVPTQFVGAIIGKEGATIRNITKQTQSKIDVHRKENAGAAEKSITILSTPEGTSAACKSILEIMHKEAQDIKFTEEIPLKILAHNNFVGRLIGKEGRNLKKIEQDTDTKITISPLQELTLYNPERTITVKGNVETCAKAEEEIMKKIRESYENDIASMNLQAHLIPGLNLNALGLFPPTSGMPPPTSGPPSAMTPPYPQFEQSETETVHLFIPALSVGAIIGKQGQHIKQLSRFAGASIKIAPAEAPDAKVRMVIITGPPEAQFKAQGRIYGKIKEENFVSPKEEVKLEAHIRVPSFAAGRVIGKGGKTVNELQNLSSAEVVVPRDQTPDENDQVVVKITGHFYACQVAQRKIQEILTQVKQHQQQKALQSGPPQSRRK”, the “soluble on expression in E. coli” value is reported as “soluble”. For “MNKLYIGNLSPAVTADDLRQLFGDRKLPLAGQVLLKSGYAFVDYPDQNWAIRAIETLSGKVELHGKIMEVDYSVSKKLRSRKIQIRNIPPHLQWEVLDGLLAQYGTVENVEQVNTDTETAVVNVTYATREEAKIAMEKLSGHQFENYSFKISYIPDEEVSSPSPPQRAQRGDHSSREQGHAPGGTSQARQIDFPLRILVPTQFVGAIIGKEGLTIKNITKQTQSRVDIHRKENSGAAEKPVTIHATPEGTSEACRMILEIMQKEADETKLAEEIPLKILAHNGLVGRLIGKEGRNLKKIEHETGTKITISSLQDLSIYNPERTITVKGTVEACASAEIEIMKKLREAFENDMLAVNQQANLIPGLNLSALGIFSTGLSVLSPPAGPRGAPPAAPYHPFTTHSGYFSSLYPHHQFGPFPHHHSYPEQEIVNLFIPTQAVGAIIGKKGAHIKQLARFAGASIKIAPAEGPDVSERMVIITGPPEAQFKAQGRIFGKLKEENFFNPKEEVKLEAHIRVPSSTAGRVIGKGGKTVNELQNLTSAEVIVPRDQTPDENEEVIVRIIGHFFASQTAQRKIREIVQQVKQQEQKYPQGVASQRSK”, the “soluble on expression in E. coli” value was “soluble”. For “MNKRENPIYKVIFLNQGQVFEMYAKQIYQSDLWGFLEIEEFVFGERTQVVVDPSEEKLKAQFEGVLRSFVPMHAIVRIDEVERLGTPKISEAKGAGNVMPFPMPMPGKSD”, the “soluble on expression in E. coli” value was “not soluble”. With “MNKVAQYYRELVASLNERLRNGERDIDALVEQARERVIKTGELTRTEIDELTRAVRRDLEEFAMSYEESLKEESDSVFMRVIKESLWQELADITDKTQLEWREIFQDLNHHGVYHSGEVVGLGNLVCEKCHFHLPIYTPEVLTLCPKCGYDQFQRRPFEP” the “soluble on expression in E. coli” value was “not soluble”. In the case of “MNKVVLLCRPGFEKECAAEITDKAGQREIFGFARVKENAGYVIYECYQPDDGDKLIRELPFSSLIFARQWFVVGELLQHLPPEDRITPIVGMLQGVVEKGGELRVEVADTNESKELLKFCRKFTVPLRAALRDAGVLANYETPKRPVVHVFFIAPGCCYTGYSYSNNNSPFYMGIPRLKFPADAPSRSTLKLEEAFHVFIPADEWDERLANGMWAVDLGACPGGWTYQLVKRNMWVYSVDNGPMAQSLMDTGQVTWLREDGFKFRPTRSNISWMVCDMVEKPAKVAALMAQWLVNGWCRETIFNLKLPMKKRYEEVSHNLAYIQAQLDEHGINAQIQARQLYHDREEVTVHVRRIWAAVGGRRDER”, the “soluble on expression in E. coli” value is reported as “soluble”. In the case of “MNLAKRILQGEQLTKETVLKIYEDTNIDTLDLLNEAYILRKHYFGKKVKLNMILNAKSGICPENCGYCGQSRDIKQKQRYALIPEEQIIDGAKVAHDNHIGTYCIVMSGRGPSDKEVDHISNTVRTIKSQHPQLKICACLGLTNDEQAKKLKSAGVDRYNHNINTSENYHDNVVTTHSYKDRTDTIELMKANNISPCSGVICGMGESNQDIVDMAFALKEMDADSIPINFLHPIKGTKFGSMDDLTPMKCLRIVALFRLINPTKEIRIAGGREVNLRSLQPLALKAANSIFVGDYLITGGQPNQLDYDMINDLGFEIDYDTCENKENKNDVSRAN”, the “soluble on expression in E. coli” value is reported as “not soluble”. For “MNLEMLESQPVPEIDTLREEIDRLDAEILALVKRRAEVSKAIGKARMASGGTRLVHSREMKVIERYSELGPDGKDLAILLLRLGRGRLGH”, the “soluble on expression in E. coli” value was “soluble”. For “MNLGFRVTGKFVRELLDVLDEIAEEIRQEEKEKYPYTEWERKREVVKERLRKLPEYVREAISVITVQKRVGRPKKVDLEKRVMLFLFARLMDKSNRDIEELLELFEPLFGIKVSYKTIERLYSDEEVRMALHNLFILLLREEGVSGDFSGDGTGYSLTITKHYRSNPKRKGKDFRYVFRIIDIDTGMYVGFGYSDRSEKDAFEKALGMLKSMGVKVNSISLDKYYSSRKTLRLFDAETAVYVIPKRNLARIGFDWLRVIERIVEAPYRFLKRYFKRNLSEAGFSADKRRFGWLIRQRREDRREMALFAVGLWHNVFAVRVVR”, the “soluble on expression in E. coli” value was “not soluble”.

— the DeepSol protein solubility set
